This note sets out measurements from article PMC10888979 (bioRxiv, 2024).

This test has as its target Mat1 (230-309) (human, UniProt P51948). Briefly: crystal structure.

Sequence of Mat1 (230-309) (P51948 230-309): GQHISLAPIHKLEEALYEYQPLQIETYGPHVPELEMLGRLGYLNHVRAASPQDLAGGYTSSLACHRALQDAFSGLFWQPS

B1: VHH_(RD7-04), construct for co-crystallization (VHH)
VHH: QVQLVESGGGLVQPGGSLRLSCVASGFTFKNFYMGWVRQAPDKGLEWVATINSGGEIQSYADSVKGRFTISRDNAKNTLYLQMNNLRPEDTAVYYCSKQSSTPAKGQGTQVTVSS
As to B1, the binding result is “binds”.
